Positions count from the first letter of the chain named.

B1: IgG1-F712 (antibody)
heavy: QVQLQESGPGLVKPSETLSLTCAVSGHSISHDHAWSWVRQPPGEGLEWIGFISYSGITNYNPSLQGRVTISRDNSKNTLYLQMNSLRAEDTAVYYCARSLARTTAMDYWGEGTLVTVSSASTKGPSVFPLAPSSKSTSGGTAALGCLVKDYFPEPVTVSWNSGALTSGVHTFPAVLQSSGLYSLSSVVTVPSSSLGTQTYICNVNHKPSNTKVDKKVEPKSCDKTHTCPPCPAPELLGGDSVFLFPPKPKDTLYISRTPEVTCVVVDVSHEDPEVKFNWYVDGVEVHNAKTKPREEQYNSTYRVVSVLQVLHADWLNGKEYKCKVSNKALPAPIEKTISKAKGQPREPQVYTLPPSRDELTKNQVSLTCLVKGFYPSDIAVEWESNGQPENNYKTTPPVLDSDGSFFLYSKLTVDKSRWQQGNVFSCSVMHEALHYHYTQKSLSLSP
light: not shown
notes: EU numbering; copies: 2 + 2
B2: IgG1-F720 (antibody)
heavy: B1 heavy with D240P, V310P
light: not shown
notes: EU numbering; copies: 2 + 2
B3: IgG1-F717 (antibody)
heavy: B1 heavy with Q309T, A313Q, N327I
light: not shown
notes: EU numbering; copies: 2 + 2
B4: IgG1-F721 (antibody)
heavy: B1 heavy with D240P, V310P, M430I
light: not shown
notes: EU numbering; copies: 2 + 2
B5: IgG1-F738 (antibody)
heavy: B1 heavy with Q309P, A313Q
light: not shown
notes: EU numbering; copies: 2 + 2
B6: IgG1-F740 (antibody)
heavy: B1 heavy with D240P, Q309P, A313H
light: not shown
notes: EU numbering; copies: 2 + 2
B7: IgG1-F715 (antibody)
heavy: B1 heavy with Q309T, A313Q, N327M
light: not shown
notes: EU numbering; copies: 2 + 2
B8: IgG1-F734 (antibody)
heavy: B1 heavy with G238D, D240P, Q309T, A313Q, L330E
light: not shown
notes: EU numbering; copies: 2 + 2
B9: IgG1-F718 (antibody)
heavy: B1 heavy with Q297M, Q309T, A313Q
light: not shown
notes: EU numbering; copies: 2 + 2
B10: IgG1-F726 (antibody)
heavy: B1 heavy with L237K, D240K, S241K, Q309T, V310P, A313Q
light: not shown
notes: EU numbering; copies: 2 + 2
B11: IgG1-F731 (antibody)
heavy: B1 heavy with D240P, Y254M, Q309A, A313H
light: not shown
notes: EU numbering; copies: 2 + 2
B12: IgG1-F723 (antibody)
heavy: B1 heavy with Q309T, A313Q, L330D
light: not shown
notes: EU numbering; copies: 2 + 2
B13: IgG1-F719 (antibody)
heavy: B1 heavy with Q309T, A313Q, N327G
light: not shown
notes: EU numbering; copies: 2 + 2
B14: IgG1-F714 (antibody)
heavy: B1 heavy with Q309T, A313Q, N327S
light: not shown
notes: EU numbering; copies: 2 + 2
B15: IgG1-F744 (antibody)
heavy: B1 heavy with T252F, Q309T, A313Q
light: not shown
notes: EU numbering; copies: 2 + 2
B16: IgG1-F732 (antibody)
heavy: B1 heavy with D240P, Y254M, A313H
light: not shown
notes: EU numbering; copies: 2 + 2
B17: IgG1-F737 (antibody)
heavy: B1 heavy with D240P, S269L, Q309T, A313Q, L330E
light: not shown
notes: EU numbering; copies: 2 + 2
B18: IgG1-F713 (antibody)
heavy: B1 heavy with N288E
light: not shown
notes: EU numbering; copies: 2 + 2
B19: IgG1-F730 (antibody)
heavy: B1 heavy with D240P, Y254M
light: not shown
notes: EU numbering; copies: 2 + 2
B20: IgG1-F729 (antibody)
heavy: B1 heavy with D240P, Y254M, Q309A
light: not shown
notes: EU numbering; copies: 2 + 2
B21: IgG1-F724 (antibody)
heavy: B1 heavy with Q309T, A313Q, L330E
light: not shown
notes: EU numbering; copies: 2 + 2
B22: IgG1-F741 (antibody)
heavy: B1 heavy with T252A, Q309T, A313Q
light: not shown
notes: EU numbering; copies: 2 + 2
B23: IgG1-F739 (antibody)
heavy: B1 heavy with D240P, Q309P
light: not shown
notes: EU numbering; copies: 2 + 2
B24: IgG1-F745 (antibody)
heavy: B1 heavy with T252G, Q309T, A313Q
light: not shown
notes: EU numbering; copies: 2 + 2
B25: IgG1-F716 (antibody)
heavy: B1 heavy with Q309T, A313Q, N327L
light: not shown
notes: EU numbering; copies: 2 + 2
B26: IgG1-F725 (antibody)
heavy: B1 heavy with L237K, G239R, D240P, S241K, Q309T, V310P, A313Q
light: not shown
notes: EU numbering; copies: 2 + 2
B27: IgG1-F733 (antibody)
heavy: B1 heavy with D240P, Q309T, A313Q, L330E
light: not shown
notes: EU numbering; copies: 2 + 2
B28: IgG1-F736 (antibody)
heavy: B1 heavy with D240P, S269M, Q309T, A313Q, L330E
light: not shown
notes: EU numbering; copies: 2 + 2
B29: IgG1-F890 (antibody)
heavy: B1 heavy with D240P, Q309T, A313Q, Y438V
light: not shown
notes: copies: 2 + 2
B30: IgG1-F746 (antibody)
heavy: B1 heavy with T252H, Q309T, A313Q
light: not shown
notes: EU numbering; copies: 2 + 2
B31: IgG1-F749 (antibody)
heavy: B1 heavy with T252L, Q309T, A313Q
light: not shown
notes: EU numbering; copies: 2 + 2
B32: IgG1-F753 (antibody)
heavy: B1 heavy with T252Q, Q309T, A313Q
light: not shown
notes: EU numbering; copies: 2 + 2
B33: IgG1-F757 (antibody)
heavy: B1 heavy with T252W, Q309T, A313Q
light: not shown
notes: EU numbering; copies: 2 + 2
B34: IgG1-F762 (antibody)
heavy: B1 heavy with L237K, D240P, S241K, N288E
light: not shown
notes: EU numbering; copies: 2 + 2
B35: IgG1-F751 (antibody)
heavy: B1 heavy with T252N, Q309T, A313Q
light: not shown
notes: EU numbering; copies: 2 + 2
B36: IgG1-F750 (antibody)
heavy: B1 heavy with T252M, Q309T, A313Q
light: not shown
notes: EU numbering; copies: 2 + 2
B37: IgG1-F747 (antibody)
heavy: B1 heavy with T252I, Q309T, A313Q
light: not shown
notes: EU numbering; copies: 2 + 2
B38: IgG1-F756 (antibody)
heavy: B1 heavy with T252V, Q309T, A313Q
light: not shown
notes: EU numbering; copies: 2 + 2
B39: IgG1-F758 (antibody)
heavy: B1 heavy with T252Y, Q309T, A313Q
light: not shown
notes: EU numbering; copies: 2 + 2

T1 sequence (chain, as listed by the source limits assumed, chain 1 of 2): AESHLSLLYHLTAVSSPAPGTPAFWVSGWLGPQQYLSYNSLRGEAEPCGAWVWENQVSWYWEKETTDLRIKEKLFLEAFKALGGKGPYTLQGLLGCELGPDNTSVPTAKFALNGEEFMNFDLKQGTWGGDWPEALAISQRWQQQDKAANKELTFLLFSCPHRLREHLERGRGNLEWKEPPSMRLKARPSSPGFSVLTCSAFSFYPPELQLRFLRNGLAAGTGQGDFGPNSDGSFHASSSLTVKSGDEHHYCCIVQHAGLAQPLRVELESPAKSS
T1 sequence (P61769 21-119 limits assumed, chain 2 of 2): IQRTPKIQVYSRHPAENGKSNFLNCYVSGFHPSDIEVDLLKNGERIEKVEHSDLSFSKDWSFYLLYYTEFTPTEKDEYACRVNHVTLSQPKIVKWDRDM

The first assay addresses T1, human FcRn (soluble human FcRn complexed with β2-microglobulin) (human, UniProt P61769 21-119, limits assumed).
T1 construct: also called hFcRn
Description: SPR, pH 7.0.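 Further: antibodies captured on a Protein L sensor chip with human FcRn injected as analyte, KD calculated from fitted association and dissociation rate constants.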 In general terms: Surface plasmon resonance follows binding to a sensor surface in real time, without labels.
One may read the Kd as the free concentration of one partner at which half of the binding sites on the other are occupied at equilibrium, for simple one-to-one binding. B1 had a Kd of 60 nM.

In turn, B2 returned a Kd of 24 nM.

B3 returned a Kd of 260 nM.

Regarding B4, the affinity, expressed as Kd, was 15 nM. Against the preceding molecule, the Kd is about 17-fold lower.

B5 showed a Kd of 350 nM.

Take B6: the Kd stood at 290 nM.

Regarding B7, the affinity, expressed as Kd, was 230 nM.

B8 registered a Kd of 310 nM.

B9 displayed a Kd of 280 nM.

For B10, the dissociation constant (Kd) is 37 nM.

Take B11: the Kd was found to be 850 nM.

As to B12, binding was put at a Kd of 280 nM. Against the preceding molecule, the Kd is about 3-fold lower.

B13 came in with a Kd of 74 nM.

As for B14, the Kd was determined as 230 nM.

In the case of B15, the Kd is 990 nM.

Regarding B16, binding was put at a Kd of 680 nM.

As to B17, binding was put at a Kd of 310 nM.

Consider B18, for which the affinity, expressed as Kd, was 20 nM. This Kd is about 16-fold lower than that of the molecule before.

In turn, B19 displayed a Kd of 600 nM.

Molecule B20 had a Kd of 920 nM.

In turn, B21 had a Kd of 250 nM.

B22: the Kd came to 310 nM.

On to B23, for which the Kd turned out to be 220 nM.

The molecule B24 returned a Kd of 660 nM. Compared with the last molecule, the Kd is about 3-fold higher.

B25 registered a Kd of 270 nM.

With B26, the Kd came to 42 nM.

For the molecule B27, the affinity, expressed as Kd, was 320 nM.

Regarding B28, the Kd is 310 nM.

For the next assay, the target named is T2, soluble human FcRn complexed with β2-microglobulin (human, UniProt P61769 21-119, limits assumed).
T2 construct: also called hFcRn
T2 sequence (chain, as listed by the source limits assumed, chain 1 of 2): as the sequence (chain, as listed by the source limits assumed, chain 1 of 2) above
T2 sequence (P61769 21-119 limits assumed, chain 2 of 2): as the sequence (P61769 21-119 limits assumed, chain 2 of 2) above
Put plainly: Biacore SPR, pH 7.0.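 Further: test antibodies captured on a Protein L chip with human FcRn flowed over as analyte, KD obtained as the ratio of dissociation to association rate constants.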
For the molecule B29, binding was put at a Kd of 110 nM.

The molecule B30 yielded a dissociation constant Kd of 600 nM. Compared with the last molecule, the Kd is about 5.5-fold higher.

Molecule B31 gave a Kd of 510 nM.

For B32, binding was put at a Kd of 180 nM.

The molecule B33 showed a Kd of 1200 nM.

B34 registered a Kd of 36 nM.

For B35, the Kd is 530 nM.

In turn, B36 yielded a Kd of 300 nM. This Kd is about 1.8-fold lower than that of the molecule before.

The molecule B37 came in with a Kd of 280 nM. This Kd and that of the molecule before are within 1.5-fold of each other.

With B38, binding was characterised by a dissociation constant (Kd) of 370 nM.

Molecule B39 registered a Kd of 1400 nM.

(Values after patent publication US20200199241A1 (Chugai, published 2020).)
